In PMC11371196, “PLASMODESMATA-LOCATED PROTEIN 6 regulates plasmodesmal function in Arabidopsis vasculature” (The Plant Cell, 2024):
Blank lines part the entries; values can stand above or below the binder they belong to. Where no end group is shown, it is not given here.

How the values were obtained:
[1] = target: T1, maltose binding protein fused SUS6 (Arabidopsis thaliana, UniProt Q9FX32 1-942); test: pull-down; 1 μg biotinylated peptide with 1 μg MBP or MBP fusion protein in 300 μL binding buffer (50 mM Tris pH 7.5, 150 mM NaCl, 0.05% NP-40), 4 °C overnight; Dynabeads MyOne Streptavidin C1; immunoblot with MBP antibody; conditions: both partners purified
T1 construct: SUCROSE SYNTHASE 6 (SUS6), Arabidopsis thaliana, At1G73370; also called MBP-SUS6; pET-MBP-SUS6; source: E. coli Rosetta, purified (amylose resin); not shown: MBP, N-terminal, kept
T1 sequence (Q9FX32 whole entry, the tested form may be a part): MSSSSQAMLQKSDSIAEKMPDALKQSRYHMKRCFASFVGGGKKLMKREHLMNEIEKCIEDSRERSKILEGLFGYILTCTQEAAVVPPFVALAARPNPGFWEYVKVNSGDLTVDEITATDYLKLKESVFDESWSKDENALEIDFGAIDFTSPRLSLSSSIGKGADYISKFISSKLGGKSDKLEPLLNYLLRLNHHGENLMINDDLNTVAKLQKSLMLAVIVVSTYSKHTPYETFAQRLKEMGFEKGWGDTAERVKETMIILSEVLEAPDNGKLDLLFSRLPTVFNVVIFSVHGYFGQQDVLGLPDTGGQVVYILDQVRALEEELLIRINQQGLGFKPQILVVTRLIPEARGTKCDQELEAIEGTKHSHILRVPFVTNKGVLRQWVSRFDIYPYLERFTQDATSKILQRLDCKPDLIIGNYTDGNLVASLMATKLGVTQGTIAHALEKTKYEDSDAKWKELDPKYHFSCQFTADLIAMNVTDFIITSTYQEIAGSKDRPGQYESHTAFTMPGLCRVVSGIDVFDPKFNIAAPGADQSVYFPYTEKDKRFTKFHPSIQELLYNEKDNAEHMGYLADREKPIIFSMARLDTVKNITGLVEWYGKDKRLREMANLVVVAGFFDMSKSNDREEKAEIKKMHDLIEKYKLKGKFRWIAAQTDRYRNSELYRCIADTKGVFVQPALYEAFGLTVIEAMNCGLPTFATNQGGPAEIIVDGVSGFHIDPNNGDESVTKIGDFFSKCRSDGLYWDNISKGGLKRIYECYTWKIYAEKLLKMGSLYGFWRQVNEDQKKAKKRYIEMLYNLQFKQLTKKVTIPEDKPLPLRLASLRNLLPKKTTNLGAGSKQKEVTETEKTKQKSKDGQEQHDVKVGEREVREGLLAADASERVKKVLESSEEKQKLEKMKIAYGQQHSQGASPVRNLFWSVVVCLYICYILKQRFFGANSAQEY

free MBP = free MBP (UniProt P0AEX9 27-396 = MBP); test: as above; conditions: both partners purified

- binding result [1]: binds
B1: biotinylated C-terminal tail of PDLP6 (peptide)
peptide: AKSCERGKGGK
modifications: also: biotin (position not given here)
notes: C-terminal tail of PDLP6, which faces the cytoplasmic sleeve; Arabidopsis thaliana, At2g01660; also called PDLP6-CT-biotin; source: synthetic peptide, bought: PEPTIDE 2.0

- binding result (free MBP): binds
B2: biotinylated C-terminal tail of PDLP7 (peptide)
peptide: RGVCSRGGDFSILHSFTLI
modifications: also: biotin (position not given here)
notes: C-terminal tail of PDLP7, Arabidopsis thaliana, At5G37660; also called PDLP7-CT-biotin; source: synthetic peptide, bought: PEPTIDE 2.0

- binding result [1]: binds
B3: biotinylated C-terminal tail of PDLP5 (peptide)
peptide: GKCCRKLQDEKWCK
modifications: cysteine pairing not given here; also: biotin (position not given here)
notes: C-terminal tail of PDLP5, Arabidopsis thaliana, At1g70690; also called PDLP5-CT-biotin; source: synthetic peptide, bought: PEPTIDE 2.0
